Assay [1] deals with glutathione-S-transferase fusion protein containing domains v3-v10 of human CD44 (human) (UniProt P16070). The assay is described as follows: SPR (BIAcore 2000), GST/CD44v3-v10 immobilised on CM5.
The target in assay [2] is CD44v6 (human CD44 variant isoform containing exon v6) on human tumour cells (human) (UniProt P16070). The assay is described as follows: immunoreactivity assay on fixed UM-SCC-11B cells, linear extrapolation to infinite antigen excess, experiment 2.
The target of assay [3] is glutathione-S-transferase fusion protein containing domains v3-v10 of human CD44 (human) (UniProt P16070). The assay is described as follows: SPR (BIAcore 2000), GST/CD44v3-v10 immobilised on CM5, MAb 8-67 nM injected.
Assay [4] addresses CD44v6 (human CD44 variant isoform containing exon v6) on human tumour cells (human) (UniProt P16070). Nature of the assay: immunoreactivity assay, 125I-labelled MAb on glutaraldehyde-fixed UM-SCC-11B cells, experiment 2.
Assay [5] has the same target. Nature of the assay: immunoreactivity assay, 186Re-MAG3-labelled MAb on fixed UM-SCC-11B cells.
The target is the same in assay [6]. Nature of the assay: competitive cell ELISA (A431 cells, vs BIWA 1).
Target sequence in this assay (P16070 21-742, stated change not applied): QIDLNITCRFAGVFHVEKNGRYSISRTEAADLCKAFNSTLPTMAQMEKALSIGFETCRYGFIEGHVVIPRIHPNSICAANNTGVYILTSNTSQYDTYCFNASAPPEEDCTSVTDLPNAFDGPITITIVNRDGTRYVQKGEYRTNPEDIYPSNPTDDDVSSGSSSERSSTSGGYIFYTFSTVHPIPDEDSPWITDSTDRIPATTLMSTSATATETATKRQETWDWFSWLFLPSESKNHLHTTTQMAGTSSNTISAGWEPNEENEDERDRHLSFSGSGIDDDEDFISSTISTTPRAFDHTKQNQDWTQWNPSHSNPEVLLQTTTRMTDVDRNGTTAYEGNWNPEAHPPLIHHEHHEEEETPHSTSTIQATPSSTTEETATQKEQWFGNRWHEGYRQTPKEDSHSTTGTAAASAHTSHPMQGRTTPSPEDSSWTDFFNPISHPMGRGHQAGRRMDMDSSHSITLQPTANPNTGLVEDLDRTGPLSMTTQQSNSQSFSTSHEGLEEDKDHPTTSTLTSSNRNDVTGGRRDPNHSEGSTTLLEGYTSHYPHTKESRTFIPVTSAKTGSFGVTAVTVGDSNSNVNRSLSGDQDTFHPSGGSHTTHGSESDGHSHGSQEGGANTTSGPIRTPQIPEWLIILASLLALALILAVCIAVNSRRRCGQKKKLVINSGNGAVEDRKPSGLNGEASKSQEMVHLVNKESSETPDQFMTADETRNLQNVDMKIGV

Sequence of glutathione-S-transferase fusion protein containing domains v3-v10 of human CD44 (human) (P16070 267-604): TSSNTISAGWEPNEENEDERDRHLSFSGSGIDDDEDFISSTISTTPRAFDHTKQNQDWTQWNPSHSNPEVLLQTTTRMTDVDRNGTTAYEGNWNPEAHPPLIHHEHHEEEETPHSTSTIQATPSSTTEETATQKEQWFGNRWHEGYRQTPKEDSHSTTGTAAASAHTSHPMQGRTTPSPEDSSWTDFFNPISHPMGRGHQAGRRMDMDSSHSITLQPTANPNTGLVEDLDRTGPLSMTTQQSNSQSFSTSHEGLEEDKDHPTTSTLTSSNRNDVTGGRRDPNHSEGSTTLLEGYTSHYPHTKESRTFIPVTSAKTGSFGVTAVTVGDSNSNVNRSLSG

Take “cMAb BIWA 2 (chimeric antibody: BIWA 1 variable regions, human gamma-1 and kappa constant regions)”: the Kd relative to murine BIWA 1 in assay [1] was determined as 0.7. Further, in assay [2], the Binding Extrapolated (%) (immunoreactive fraction) was 79.9%. Besides, in assay [3], the dissociation constant (Kd) worked out at 0.24 nM, the koff was determined as 4.1e-05 s⁻¹ and the kon was determined as 170000 M⁻¹ s⁻¹. Also, the Binding to 5 × 10^6 cells (%) in assay [4] is 80.5%. The substance further came in with an immunoreactive fraction in assay [5] of more than 75%.

In turn, “hMAb BIWA 4 (bivatuzumab), humanised CDR-grafted antibody without framework modifications” returned a half-maximal inhibitory concentration (IC50) in assay [6] of 8.01 µg/mL.

(Values after patent US20050214212A1.)
